# “And” between values parts separate entries of the source, which are not always exact repeats. Identical values can stand only once.
# Legend:
# [1] = biological target: baseplate wedge 1 (gp111) of phage 7-7-1 (Agrobacterium phage 7-7-1); test: cryo-EM structure; single particle analysis of purified virions; baseplate region, local refinements: baseplate core complex C6 3.4 Å, tail fibers C1 3.5 Å
# [2] = biological target: baseplate center piece protein (gp114) of phage 7-7-1 (Agrobacterium phage 7-7-1); test: as above
# [3] = biological target: portal protein (gp005) of phage 7-7-1 (Agrobacterium phage 7-7-1); test: cryo-EM structure; single particle analysis of purified virions; neck region, local refinements: portal C12 3.2 Å, collar C15 3.3 Å, neck 1 C3 3.5 Å, neck 2 + tail terminator + tail sheath + tail tube C6 3.6 Å
# [4] = biological target: long tail fiber (gp015) of phage 7-7-1 (Agrobacterium phage 7-7-1); test: cryo-EM structure; single particle analysis of purified virions; baseplate region, local refinements: baseplate core complex C6 3.4 Å, tail fibers C1 3.5 Å
# [5] = biological target: baseplate central hub protein (gp113) of phage 7-7-1 (Agrobacterium phage 7-7-1); test: as above
# [6] = biological target: tail tube protein (gp127) of phage 7-7-1 (Agrobacterium phage 7-7-1); test: cryo-EM structure; single particle analysis of purified virions; extended tail, C6 helical refinement, twist 27.35°, rise 35.25 Å, 3.1 Å
# [7] = biological target: tail tube protein (gp127) of phage 7-7-1 (Agrobacterium phage 7-7-1); test: cryo-EM structure; single particle analysis of purified virions; neck region, local refinements: portal C12 3.2 Å, collar C15 3.3 Å, neck 1 C3 3.5 Å, neck 2 + tail terminator + tail sheath + tail tube C6 3.6 Å
# [8] = biological target: tail terminator protein (gp124) of phage 7-7-1 (Agrobacterium phage 7-7-1); test: as above
# [9] = biological target: neck 2 protein (gp121) of phage 7-7-1 (Agrobacterium phage 7-7-1); test: as above
# [10] = biological target: major capsid protein (gp003) of phage 7-7-1 (Agrobacterium phage 7-7-1); test: cryo-EM structure; single particle analysis of purified virions in TM buffer (10 mM MgSO4, 20 mM Tris/HCl, pH 7.5); DNA-filled capsid, icosahedral symmetry, 3.4 Å
# [11] = biological target: decoration protein (gp002) of phage 7-7-1 (Agrobacterium phage 7-7-1); test: as above
# [12] = biological target: central spike protein (gp112) of phage 7-7-1 (Agrobacterium phage 7-7-1); test: cryo-EM structure; single particle analysis of purified virions; baseplate region, local refinements: baseplate core complex C6 3.4 Å, tail fibers C1 3.5 Å
# [13] = biological target: baseplate wedge 2 (gp110) of phage 7-7-1 (Agrobacterium phage 7-7-1); test: as above
# [14] = biological target: short tail fiber (gp008) of phage 7-7-1 (Agrobacterium phage 7-7-1); test: as above
# [15] = biological target: neck 1 protein (gp119) of phage 7-7-1 (Agrobacterium phage 7-7-1); test: cryo-EM structure; single particle analysis of purified virions; neck region, local refinements: portal C12 3.2 Å, collar C15 3.3 Å, neck 1 C3 3.5 Å, neck 2 + tail terminator + tail sheath + tail tube C6 3.6 Å
# [16] = biological target: garland protein (gp014) of phage 7-7-1 (Agrobacterium phage 7-7-1); test: cryo-EM structure; single particle analysis of purified virions; baseplate region, local refinements: baseplate core complex C6 3.4 Å, tail fibers C1 3.5 Å
substance,measurement,setting,value
baseplate wedge 1 (gp111) of phage 7-7-1 (natural protein),stoichiometry N,[1],6
baseplate center piece protein (gp114) of phage 7-7-1 (natural protein),stoichiometry N,[2],6
portal protein (gp005) of phage 7-7-1 (natural protein),stoichiometry N,[3],12
long tail fiber (gp015) of phage 7-7-1 (natural protein),stoichiometry N,[4],3
baseplate central hub protein (gp113) of phage 7-7-1 (natural protein),stoichiometry N,[5],3
tail tube protein (gp127) of phage 7-7-1 (natural protein),stoichiometry N,[6],6
same,stoichiometry N,[7],6
tail terminator protein (gp124) of phage 7-7-1 (natural protein),stoichiometry N,[8],6
neck 2 protein (gp121) of phage 7-7-1 (natural protein),stoichiometry N,[9],6
major capsid protein (gp003) of phage 7-7-1 (natural protein),stoichiometry N,[10],6 and 5
decoration protein (gp002) of phage 7-7-1 (natural protein),stoichiometry N,[11],2
central spike protein (gp112) of phage 7-7-1 (natural protein),stoichiometry N,[12],3
baseplate wedge 2 (gp110) of phage 7-7-1 (natural protein),stoichiometry N,[13],2
short tail fiber (gp008) of phage 7-7-1 (natural protein),stoichiometry N,[14],3
neck 1 protein (gp119) of phage 7-7-1 (natural protein),stoichiometry N,[15],12
garland protein (gp014) of phage 7-7-1 (natural protein),stoichiometry N,[16],2

# — PMC12796354
